Target: T1, CRP-His6 (cAMP receptor protein) (Vibrio cholerae C6706) (UniProt O34015)
T1 sequence: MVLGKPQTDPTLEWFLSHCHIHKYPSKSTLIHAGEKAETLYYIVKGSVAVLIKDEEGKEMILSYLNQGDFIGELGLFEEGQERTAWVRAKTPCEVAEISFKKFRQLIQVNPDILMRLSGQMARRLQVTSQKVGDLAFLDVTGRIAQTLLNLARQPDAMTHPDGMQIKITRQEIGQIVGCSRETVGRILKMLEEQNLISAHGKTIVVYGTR
Test: EMSA
Conditions: 10 mM Tris pH 7.5, 1 mM EDTA, 100 mM KCl, 0.1 mM DTT, 5% glycerol, 0.01 mg/ml BSA; CRP 11 ng/ul, promoter DNA 2.5 ng/ul, 75 ng NS DNA; 1 h at room temperature …

With “CAGTGGATTAGCGTATGGACACGGCTACGTTTCCGCAGTGGAAAACGGTGTCGCCGAAGGACGTGTCACCTTGTGTAAATTTGCCGCTAACGGCACTGGAAAAAAAAACACTCACTGTGGCGCGATTCAATAC (double strand) [non-specific control 133 bp fragment (NS)]” the binding was “no binding”.

Source: paper PMC4545359
